# Assay results reported in patent US20040132130.
# T1: Ac-Ala-Ala-Pro-Thr(Man)-Pro-Val-Ala-Ala-Pro-NH2
# T1 chain: AAPTPVAAP
# B1: His-Xpress-sGnT-I (protein)
# chain: SVSALDGDPASLTREVIRLAQDAEVELERQRGLLQQIGDALSSQRGRVPTAAPPAQPRVPVTPAPAVIPILVIACDRSTVRRCLDKLLHYRPSAELFPIIVSQDCGHEETAQAIASYGSAVTHIRQPDLSSIAVPPDHRKFQGYYKIARHYRWALGQVFRQFRFPAAVVVEDDLEVAPDFFEYFRATYPLLKADPSLWCVSAWNDNGKEQMVDASRPELLYRTDFFPGLGWLLLAELWAELEPKWPKAFWDDWMRRPEQRQGRACIRPEISRTMTFGRKGVSHGQFFDQHLKFIKLNQQFVHFTQLDLSYLQREAYDRDFLARVYGAPQLQVEKVRTNDRKELGEVRVQYTGRDSFKAFAKALGVMDDLKSGVPRAGYRGIVTFQFRGRRVHLAPPLTWEGYDPSWN
# B2: His-Xpress-sOMGnT(S) (protein)
# chain: SSAEEAECHWADTELNRRRRRFCSKVEGYGSVCSCKDPTPIEFSPDPLPDNKVLNVPVAVIAGNRPNYLYRMLRSLLSAQGVSPQMITVFIDGYYEEPMDVVALFGLRGIQHTPISIKNARVSQHYKASLTATFNLFPEAKFAVVLEEDLDIAVDFFSFLSQSIHLLEEDDSLYCISAWNDQGYEHTAEDPALLYRVETMPGLGWVLRRSLYKEELEPKWPTPEKLWDWDMWMRMPEQRRGRECIIPDVSRSYHFGIVGLNMNGYFHEAYFKKHKFNTVPGVQLRNVDSLKKEAYEVEVHRLLSEAEVLDHSKNPCEDSFLPDTEGHTYVAFIRMEKDDDFTTWTQLAKCLHIWDLDVRGNHRGLWRLFRKKNHFLVVGVPASPYSVKKPPSVTPIFLEPPPKEEGAPGAPEQT
# Target: T1, Ac-Ala-Ala-Pro-Thr(Man)-Pro-Val-Ala-Ala- …
Protein,OMGnT activity (pmol/hr/mg protein) (pmol/hr/mg protein),Km value [mM],OMGnT relative activity (%)
B1,0.4,–,–
B2,20,1.36,100
